8 molecules from paper PMC5906708, “Manipulation of Light Signal Transduction Factors as a Means of Modifying Steroidal Glycoalkaloids Accumulation in Tomato Leaves” can be followed below.

The chains are these.
T1: SlHY5 (GST-HY5) (Solanum lycopersicum, UniProt Q9SM50 1-158)
T1 sequence: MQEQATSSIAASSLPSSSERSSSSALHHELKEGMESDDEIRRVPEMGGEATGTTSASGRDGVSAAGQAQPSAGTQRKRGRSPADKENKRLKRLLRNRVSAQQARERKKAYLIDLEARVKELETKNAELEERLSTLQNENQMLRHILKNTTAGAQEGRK

B1: GAME17 promoter G-box probe (dsDNA)
DNA 1: CGACATTTGATTGAATTTTAAATTTCACACGTGATACATAGATTGAGATT
DNA 2: AATCTCAATCTATGTATCACGTGTGAAATTTAAAATTCAATCAAATGTCG
B2: GAME1 promoter G-box probe (dsDNA)
DNA 1: GATTGCTTAAAGAGAGAATACCACGTGATGTCCCCCACACCACACCTGCT
DNA 2: AGCAGGTGTGGTGTGGGGGACATCACGTGGTATTCTCTCTTTAAGCAATC
B3: GAME4 promoter G-box probe (dsDNA)
DNA 1: GTTGGGGGGCTAAATTATATTCACGTGATTGTATTTTTTTTTTTAATTGC
DNA 2: GCAATTAAAAAAAAAAATACAATCACGTGAATATAATTTAGCCCCCCAAC
B4: GAME11 probe (dsDNA)
DNA 1: AAGTAAATTATAAATATACGTGACGAAAACGATCTTTAAAATTCTTTGTA
DNA 2: TACAAAGAATTTTAAAGATCGTTTTCGTCACGTATATTTATAATTTACTT
B5: GAME6 probe (dsDNA)
DNA 1: ATAATAACACCGTTTCTCTGCTTTAAGCGTGCTTTTTATCTCATAACTAAAAACT
DNA 2: AGTTTTTAGTTATGAGATAAAAAGCACGCTTAAAGCAGAGAAACGGTGTTATTAT
B6: GAME12 probe (dsDNA)
DNA 1: GAAACGATATAATATACGTGATACAAGTTTATTAATAAATCAATGGCCCA
DNA 2: TGGGCCATTGATTTATTAATAAACTTGTATCACGTATATTATATCGTTTC
B7: GAME2 probe (dsDNA)
DNA 1: ATCCCAAAAGAGTTGTTAGGTCGTGCACAAAACCCGTTTTCTGCGAAAAT
DNA 2: ATTTTCGCAGAAAACGGGTTTTGTGCACGACCTAACAACTCTTTTGGGAT
B8: GAME18 probe (dsDNA)
DNA 1: TGATACAACTAAAAGACATACGTTTAAAAAAGCAAATTGATCAAGTCGTTTG
DNA 2: CAAACGACTTGATCAATTTGCTTTTTTAAACGTATGTCTTTTAGTTGTATCA

In one data set the target is T1, SlHY5 (GST-HY5). Kind of data set: EMSA; LightShift Chemiluminescent EMSA kit, 25 min at 22 C, 6% native PAGE; buffer, salt and pH not stated. As to conditions: protein: recombinant; tags: GST (pGEX-4T-1); chain copies: 2; label: biotin.
Turning to B1, the binding result is given as “binds”.
Turning to B2, the binding result is on record as “binds”.
The same measure, in the same setting: under B3 stands “binds”.

The same data set, now with this note: protein: recombinant; tags: GST (pGEX-4T-1); chain copies: 2; label: biotin; blunt.
Regarding B4, the binding result is “no binding”.
Same read-out and setting: under B5 stands “no binding”.
Still for that read-out and setting: to B6 belongs “no binding”; to B7, “no binding”.
Regarding B8, the binding result is given as “no binding”.

A further data set deals with SlPIF3 (GST-PIF3) (Solanum lycopersicum, UniProt A0A3Q7EQR7 388-618). The description is as above. The conditions noted are these: protein: recombinant; tags: GST (pGEX-4T-1); chain copies: 2; label: biotin.
Chain of SlPIF3 (GST-PIF3) (A0A3Q7EQR7 entry or part of it): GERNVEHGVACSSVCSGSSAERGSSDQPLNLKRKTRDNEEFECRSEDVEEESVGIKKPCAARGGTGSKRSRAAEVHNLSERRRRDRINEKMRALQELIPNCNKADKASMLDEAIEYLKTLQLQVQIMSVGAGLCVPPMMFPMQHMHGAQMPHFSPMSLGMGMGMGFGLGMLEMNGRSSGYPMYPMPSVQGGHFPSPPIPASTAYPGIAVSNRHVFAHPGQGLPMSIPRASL
As to B1, the binding result is “binds”.
Same read-out and setting: under B2 stands “binds”.
Same read-out and setting: to B3 belongs “binds”.

The same data set, now with this note: protein: recombinant; tags: GST (pGEX-4T-1); chain copies: 2; label: biotin; blunt.
For B4, the binding result is recorded as “no binding”.
Same read-out and setting: under B5 stands “no binding”; under B6, “no binding”; under B7, “no binding”.
On the same count and under the same terms, to B8 belongs “no binding”.
